This note sets out measurements from patent publication US20050239704.

The target in this series is T1, SarA (Staphylococcus aureus) (UniProt Q2G2U9).
T1 sequence: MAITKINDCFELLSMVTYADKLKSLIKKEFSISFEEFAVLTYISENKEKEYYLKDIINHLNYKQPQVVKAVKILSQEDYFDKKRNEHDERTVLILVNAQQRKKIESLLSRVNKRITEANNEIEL
The series can be described thus: EMSA. The following applies: 2-5 ng radiolabeled P1 fragment; scale: fold more protein than SarR for complete shift. On the technique in general: A gel shift assay detects complexes by their altered migration in electrophoresis.

In the case of sarA P1 promoter fragment (nt 531-859), the binding signal was found to be 10.
